Experimental data from patent publication EP4635976A1 (Medigene Immunotherapies GmbH, dated 2025).

Experiments:
Assay in all cases: cell-based or functional assay
[1] = target: mismatched peptide #280 …
[2] = target: mismatched peptide #278 …
[3] = target: mismatched peptide #41 …
[4] = target: mismatched peptide #257 …
[5] = target: mismatched peptide #265 …
[6] = target: mismatched peptide #240 …
[7] = target: mismatched peptide #79 …
[8] = target: mismatched peptide #15 …
[9] = target: mismatched peptide #47 …
[10] = target: mismatched peptide #243 …
[11] = target: mismatched peptide #244 …
[12] = target: mismatched peptide #323 …
[13] = target: mismatched peptide #239 …
[14] = target: mismatched peptide #246 …
[15] = target: mismatched peptide #9 …
[16] = target: mismatched peptide #31 …
[17] = target: mismatched peptide #324 …
[18] = target: mismatched peptide #76 …
[19] = target: mismatched peptide #62 …
[20] = target: mismatched peptide #221 …
[21] = target: mismatched peptide #160 …
[22] = target: mismatched peptide #45 …
[23] = target: mismatched peptide #116 …
[24] = target: mismatched peptide #228 …
[25] = target: mismatched peptide #236 …
[26] = target: mismatched peptide #247 …
[27] = target: mismatched peptide #84 …

B1: NY-ESO specific TCR (T11.8-10-17) with Uni-TABS epitope V1 at A199 in loop 1 of TRBC (TCR)
TCR alpha: QKEVEQNSGPLSVPEGAIASLNCTYSDRGSQSFFWYRQYSGKSPELIMFIYSNGDKEDGRFTAQLNKASQYVSLLIRDSQPSDSATYLCAADDKIIFGKGTRLHILPNIQNPDPAVYQLRDSKSSDKSVCLFTDFDSQTNVSQSKDSDVYITDKTVLDMRSMDFKSNSAVAWSNKSDFACANAFNNSIIPEDTFFPSSDVPCDVKLVEKSFETDTNLNFQNLSVIGFRILLLKVAGFNLLMTLRLWSS
TCR beta: DAGVIQSPRHEVTEMGQEVTLRCKPISGHDYLFWYRQTMMRGLELLIYFNNNVPIDDSGMPEDRFSAKMPNASFSTLKIQPSEPRDSAVYFCASSRGGSGYTFGSGTRLTVVEDLNKVFPPEVAVFEPSKAEIAHTQKATLVCLATGFFPDHVELSWWVNGKEVHSGVSTDPQPLKEQPAGSGDKGEVPKDRFSAGSGLNDSRYCLSSRLRVSATFWQNPRNHFRCQVQFYGLSENDEWTQDRAKPVTQIVSAEAWGRADCGITSASYHQGVLSATILYEILLGKATLYAVLVSALVLMAMVKRKDF
For B1, which “IFN-γ release (IFNg-ELISA), donor MIT038” value [1] is on record?
Its value is 256 pg/mL.

What about the “IFN-γ release (IFNg-ELISA), donor MIT038” value [2] of the same binder?
The value was 442 pg/mL.

And the “IFN-γ release (IFNg-ELISA), donor MIT038” value [3]?
The value was 555 pg/mL.

And the “IFN-γ release (IFNg-ELISA), donor MIT 045” value [3]?
The value was 680 pg/mL.

And the “IFN-γ release (IFNg-ELISA), donor MIT038” value [4]?
The value was 407 pg/mL.

And the “IFN-γ release (IFNg-ELISA), donor MIT038” value [5]?
The value was 400 pg/mL.

What about the “IFN-γ release (IFNg-ELISA), donor MIT038” value [6] of the same binder?
Its value is 386 pg/mL.

And the “IFN-γ release (IFNg-ELISA), donor MIT038” value [7]?
The value was 370 pg/mL.

What about the “IFN-γ release (IFNg-ELISA), donor MIT038” value [8] of the same binder?
Its value is 520 pg/mL.

What about the “IFN-γ release (IFNg-ELISA), donor MIT 045” value [8] of the same binder?
Its value is 306 pg/mL.

And the “IFN-γ release (IFNg-ELISA), donor MIT 045” value [9]?
Its value is 530 pg/mL.

What about the “IFN-γ release (IFNg-ELISA), donor MIT038” value [10] of the same binder?
Its value is 499 pg/mL.

And the “IFN-γ release (IFNg-ELISA), donor MIT 045” value [10]?
Its value is 356 pg/mL.

And the “IFN-γ release (IFNg-ELISA), donor MIT038” value [11]?
The value was 387 pg/mL.

And the “IFN-γ release (IFNg-ELISA), donor MIT 045” value [11]?
The value was 261 pg/mL.

And the “IFN-γ release (IFNg-ELISA), donor MIT038” value [12]?
The value was 3170 pg/mL.

What about the “IFN-γ release (IFNg-ELISA), donor MIT 045” value [12] of the same binder?
The value was 3000 pg/mL.

What about the “IFN-γ release (IFNg-ELISA), donor MIT038” value [13] of the same binder?
The value was 312 pg/mL.

And the “IFN-γ release (IFNg-ELISA), donor MIT038” value [14]?
Its value is 345 pg/mL.

And the “IFN-γ release (IFNg-ELISA), donor MIT038” value [15]?
Its value is 258 pg/mL.

What about the “IFN-γ release (IFNg-ELISA), donor MIT038” value [16] of the same binder?
The value was 2420 pg/mL.

What about the “IFN-γ release (IFNg-ELISA), donor MIT 045” value [16] of the same binder?
The value was 1560 pg/mL.

And the “IFN-γ release (IFNg-ELISA), donor MIT038” value [17]?
The value was 757 pg/mL.

What about the “IFN-γ release (IFNg-ELISA), donor MIT 045” value [17] of the same binder?
Its value is 628 pg/mL.

And the “IFN-γ release (IFNg-ELISA), donor MIT038” value [18]?
Its value is 825 pg/mL.

What about the “IFN-γ release (IFNg-ELISA), donor MIT 045” value [18] of the same binder?
The value was 939 pg/mL.

And the “IFN-γ release (IFNg-ELISA), donor MIT038” value [19]?
The value was 942 pg/mL.

And the “IFN-γ release (IFNg-ELISA), donor MIT 045” value [19]?
Its value is 918 pg/mL.

What about the “IFN-γ release (IFNg-ELISA), donor MIT038” value [20] of the same binder?
The value was 900 pg/mL.

And the “IFN-γ release (IFNg-ELISA), donor MIT 045” value [20]?
The value was 889 pg/mL.

And the “IFN-γ release (IFNg-ELISA), donor MIT038” value [21]?
The value was 2800 pg/mL.

And the “IFN-γ release (IFNg-ELISA), donor MIT 045” value [21]?
Its value is 2840 pg/mL.

What about the “IFN-γ release (IFNg-ELISA), donor MIT038” value [22] of the same binder?
The value was 1410 pg/mL.

What about the “IFN-γ release (IFNg-ELISA), donor MIT 045” value [22] of the same binder?
Its value is 1520 pg/mL.

What about the “IFN-γ release (IFNg-ELISA), donor MIT 045” value [23] of the same binder?
Its value is 257 pg/mL.

What about the “IFN-γ release (IFNg-ELISA), donor MIT038” value [24] of the same binder?
Its value is 484 pg/mL.

And the “IFN-γ release (IFNg-ELISA), donor MIT 045” value [24]?
Its value is 1200 pg/mL.

And the “IFN-γ release (IFNg-ELISA), donor MIT038” value [25]?
Its value is 476 pg/mL.

And the “IFN-γ release (IFNg-ELISA), donor MIT 045” value [25]?
The value was 400 pg/mL.

What about the “IFN-γ release (IFNg-ELISA), donor MIT038” value [26] of the same binder?
Its value is 537 pg/mL.

And the “IFN-γ release (IFNg-ELISA), donor MIT 045” value [26]?
Its value is 372 pg/mL.

B2: NY-ESO specific TCR (T11.8-10-17) with Uni-TABS epitope V1 at A245 in loop 2 of TRBC (TCR)
TCR alpha: B1 TCR alpha
TCR beta: DAGVIQSPRHEVTEMGQEVTLRCKPISGHDYLFWYRQTMMRGLELLIYFNNNVPIDDSGMPEDRFSAKMPNASFSTLKIQPSEPRDSAVYFCASSRGGSGYTFGSGTRLTVVEDLNKVFPPEVAVFEPSKAEIAHTQKATLVCLATGFFPDHVELSWWVNGKEVHSGVSTDPQPLKEQPALNDSRYCLSSRLRVSATFWQNPRNHFRCQVQFYGLSENDEWTQDRAGSGDKGEVPKDRFSAGSGKPVTQIVSAEAWGRADCGITSASYHQGVLSATILYEILLGKATLYAVLVSALVLMAMVKRKDF
How did the “IFN-γ release (IFNg-ELISA), donor MIT 045” value [2] turn out when B2 was run?
The value was 0 pg/mL.

What about the “IFN-γ release (IFNg-ELISA), donor MIT 045” value [27] of the same binder?
The value was 0 pg/mL.

And the “IFN-γ release (IFNg-ELISA), donor MIT 045” value [3]?
The value was 0 pg/mL.

And the “IFN-γ release (IFNg-ELISA), donor MIT 045” value [4]?
Its value is 0 pg/mL.

What about the “IFN-γ release (IFNg-ELISA), donor MIT 045” value [7] of the same binder?
Its value is 0 pg/mL.

What about the “IFN-γ release (IFNg-ELISA), donor MIT 045” value [8] of the same binder?
The value was 0 pg/mL.

What about the “IFN-γ release (IFNg-ELISA), donor MIT 045” value [10] of the same binder?
The value was 0 pg/mL.

And the “IFN-γ release (IFNg-ELISA), donor MIT 045” value [11]?
The value was 0 pg/mL.

What about the “IFN-γ release (IFNg-ELISA), donor MIT 045” value [12] of the same binder?
The value was 0 pg/mL.

What about the “IFN-γ release (IFNg-ELISA), donor MIT 045” value [14] of the same binder?
Its value is 0 pg/mL.

What about the “IFN-γ release (IFNg-ELISA), donor MIT 045” value [16] of the same binder?
Its value is 0 pg/mL.

What about the “IFN-γ release (IFNg-ELISA), donor MIT 045” value [17] of the same binder?
The value was 0 pg/mL.

What about the “IFN-γ release (IFNg-ELISA), donor MIT 045” value [18] of the same binder?
Its value is 0 pg/mL.

And the “IFN-γ release (IFNg-ELISA), donor MIT 045” value [19]?
The value was 0 pg/mL.

What about the “IFN-γ release (IFNg-ELISA), donor MIT 045” value [20] of the same binder?
Its value is 0 pg/mL.

And the “IFN-γ release (IFNg-ELISA), donor MIT 045” value [21]?
The value was 0 pg/mL.

What about the “IFN-γ release (IFNg-ELISA), donor MIT 045” value [22] of the same binder?
The value was 0 pg/mL.

And the “IFN-γ release (IFNg-ELISA), donor MIT 045” value [24]?
The value was 0 pg/mL.

And the “IFN-γ release (IFNg-ELISA), donor MIT 045” value [26]?
The value was 0 pg/mL.
